{"source": "paper PMC3913652", "biological_target": "rat GLP-1 receptor (rat) (UniProt P32301)", "sequence (P32301 22-463)": "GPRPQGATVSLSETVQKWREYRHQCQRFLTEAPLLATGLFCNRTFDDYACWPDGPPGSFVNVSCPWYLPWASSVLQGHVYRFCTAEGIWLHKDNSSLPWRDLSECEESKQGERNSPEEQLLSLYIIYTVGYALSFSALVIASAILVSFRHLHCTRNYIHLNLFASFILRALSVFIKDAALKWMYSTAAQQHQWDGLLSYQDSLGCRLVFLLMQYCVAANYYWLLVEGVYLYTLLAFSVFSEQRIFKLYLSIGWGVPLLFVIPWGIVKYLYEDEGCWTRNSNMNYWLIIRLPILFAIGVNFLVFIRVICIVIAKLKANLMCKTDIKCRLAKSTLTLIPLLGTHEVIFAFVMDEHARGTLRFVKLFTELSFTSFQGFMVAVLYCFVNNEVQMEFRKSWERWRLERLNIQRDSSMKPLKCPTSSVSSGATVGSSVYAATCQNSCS", "data": [{"substance": "[Leu^14]exenatide (peptide)", "values": [{"measurement": "EC50, cAMP in 6–23 clone 6 cells (GLP-1 Receptor Functional Assay, 0.1% BSA)", "result": 6, "unit": "pM"}]}]}
